The nature of the data set: yeast display, Sf9 membrane polyspecificity reagent, FACS + sequencing; frameworks hold sequencing errors. In short, it runs like this:
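Nanobodies from a synthetic yeast display library (Saccharomyces cerevisiae BJ5465), induced 36–48 hours with galactose, were stained 1 hour at 4 °C with 10% biotinylated, detergent-solubilized Sf9 membrane reagent, enriched on streptavidin microbeads, then FACS-sorted. Anti-HA (expression) and streptavidin (reagent binding) fluorescence set low and high (top ~1%) gates. Polyreactivity labels come from the gate of origin. Genes were colony-PCR amplified, MiSeq 2 × 250 sequenced and filtered by CDR length.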
Take “QVQLVESGGGLVQAGGSLRLSCAASGFTFFRYAMGWYRQAPGKERELVATITRGGSTNYADSVKGRCTISRDNAKNTDYLQMNSLQPEDTAVYYCNKDKKTPTFDYWGQGTQVTVSS”: the “polyreactivity (PSR sort gate)” value is “low polyreactivity”.
Consider “QVQLVESGGGLVQAGGSLRLSCAASGFTFFSYTMGWYRQAPGKERELVAAISKRGSRTYYADSVKGRFTISRDNAKNTVYLQRNSLKPEDTAVYYCAADCGREVVLRREDYWGQGTQVTVSS”, for which the “polyreactivity (PSR sort gate)” value is reported as “high polyreactivity”.
With “QVQLVESGGGLVQAGGSLRLSCAASGFTFFVNAMGWYRQAPGKERELVAAISIRSGGRTYYADSVKGRFTISRDNAKNTVYLQMNSLKPEDTAVYYCAAESSRPEHTYHYYRFLFDYWGQGTQVTVSS”, the “polyreactivity (PSR sort gate)” value was “low polyreactivity”.
Regarding “QVQLVESGGGLVQAGGSLRLSCAASGFTFFYNAMGWYRQAPGKEREFVAAISGRGGTTYYADSVKGRFTISRDNAKNTVYLQMNSLKPEDTAVYYCAARSVSTLRYTSRKLRYDYWGQGTQVTVSS”, the “polyreactivity (PSR sort gate)” value was “high polyreactivity”.
For “QVQLVESGGGLVQAGGSLRLSCAASGFTFFYYDMGWYRQAPGKERELVADITTGGSTYYADSVKGRFTISRDNAKNTVYLQMNSLKPEDTAVYYCAALLYVSNSYRWWPWDGEDYWGQGTQVTVSS” the value was “high polyreactivity”; for “QVQLVESGGGLVQAGGSLRLSCAASGFTFFYYVMGWYRQAPGKERELVAAISQHGGSTYYADSVKGRFTISRDNAKNTVYLQMNSLKPEDTAVYYCAASPVVNRRGTYGYWGQGTQVTVSS”, “high polyreactivity”; for “QVQLVESGGGLVQAGGSLRLSCAASGFTFGENAMGWYRQAPGKEWELVATISDSGDSTYYADSVKGRFTISRDNAKNTVYLLMNSLKPEDTAVYDCNAEQVCYTYGRYPEWYLYGYWGQGTQVTVSS”, “low polyreactivity”.
In the case of “QVQLVESGGGLVQAGGSLRLSCAASGFTFGFYAMGWYRQGPGKERELVAASTRSGGTTYYADSVKGRFTISRDNAKNTVYLQMNSLKPEDTAVYYCAADYTKYYRRYYYWGQGTQVTVSS”, the “polyreactivity (PSR sort gate)” value is “high polyreactivity”.
As for “QVQLVESGGGLVQAGGSLRLSCAASGFTFGGNDMGWYSQAPGKERELVAAIRSSGDTTYYADSVKGRFTISRDNAKNTVYLQMNSLKPEDTAVSYCAAYSHHQFSRSEYYYWGKGTQVTVSS”, the “polyreactivity (PSR sort gate)” value was “low polyreactivity”.
For “QVQLVESGGGLVQAGGSLRLSCAASGFTFGGNVMGWYRQAPGKERELVAAIRGTGGNTYYADSVKGRFTISRDNAKNTVYLQMNSLKPEDTAVYYCAAAQRELPTVRRNYWGQGTQVTVSS”, the “polyreactivity (PSR sort gate)” value is reported as “high polyreactivity”.
Then “QVQLVESGGGLVQAGGSLRLSCAASGFTFGGYAMGWYRQAPGKERELVAAIRASGGSTYYADSVKGRFTISRDNAKNTVYLQMNSLKPEDTAVYYCNADIWYKTYDYWGQGTQVTVSS”, with “low polyreactivity”.
As to “QVQLVESGGGLVQAGGSLRLSCAASGFTFGGYAMGWYRQAPGKERELVAAIRSSGDTTYYADSVKGRFTISRDNAKNTVYLQMNSLKPEDTAVYYCAAYSHHQFSRSEYYYWGQGTQVTVSS”, the “polyreactivity (PSR sort gate)” value was “low polyreactivity”.
For “QVQLVESGGGLVQAGGSLRLSCAASGFTFGGYAMGWYRQAPGKERELVAAISKSGGRTYYADSVKGRFTISRDNAKNTVYLQMNSLKPEDTAVYYCAASTIWHYDSWGQGTQVTVSS” the value was “high polyreactivity”; for “QVQLVESGGGLVQAGGSLRLSCAASGFTFGGYVMGWYRQAPGKERELVAAISSSGGITHYADSVKGRFTISRDNAKNTVYLQMNSLKPEDTAVYYCNALYRQRYYWGQGTQVTVSS”, “high polyreactivity”; for “QVQLVESGGGLVQAGGSLRLSCAASGFTFGHYALGWYRQATGKERELVAAITRSGGNTYYADSVKGRFTISRYNAKNTVYLQMNSLKPEDTAVYYCAARLGWVYYSRSRYGYWGQGTQVTVSS”, “high polyreactivity”.
Consider “QVQLVESGGGLVQAGGSLRLSCAASGFTFGHYAMGWYRPAPGKERELVAAISSGDRTYYADSVKGRFTISRDNAKNTVYLQMNSLKPEDTAVYYCNAVYYSWAQSARFDYWGQGTQVTVSS”, for which the “polyreactivity (PSR sort gate)” value is listed as “low polyreactivity”.
Consider “QVQLVESGGGLVQAGGSLRLSCAASGFTFGHYAMGWYRQAPGKERELVAAISIDGGRTYYADSVKGRFTISRDNAKNTVYLQMNSLKPEDTAVYYCAAAVAGRKMGYWGQGTQVTVSS”, for which the “polyreactivity (PSR sort gate)” value is listed as “high polyreactivity”.
Then “QVQLVESGGGLVQAGGSLRLSCAASGFTFGKNAMGWYRQAPGKERELVAAIDTGDRTNYADSVKGRFTISRDNAKNTVYLQMNSLKPEDTAVYYCATDVVFSSYDYWGQGTQVTVSS”, with “low polyreactivity”.
For “QVQLVESGGGLVQAGGSLRLSCAASGFTFGLYAMGWYRQAPGKERELVAAISSDGSTYYTDSVKGRFTISRDNAKNTVYLQMNSLKPEDTSVYYCNRDYPQSLPYYTNTILYGYWGQGTQVTVSS” the value was “low polyreactivity”; for “QVQLVESGGGLVQAGGSLRLSCAASGFTFGLYTMGWYRQAPGKERELVAAITSSGARTYYADSVKGRFTISRDNAKNTVNLQMNSLKPEDTAVYYCNAGKRGSTYYYWGQGTQVTVSS”, “high polyreactivity”.
For “QVQLVESGGGLVQAGGSLRLSCAASGFTFGNSALGWYRLAAGKERELVAAISRSGGRTYYADSVKGSFTISRDNAKNTVYLQMNSLKPEVTAVYYCARLLLSPQYGYWGQGTQVTVSS” the value was “high polyreactivity”; for “QVQLVESGGGLVQAGGSLRLSCAASGFTFGNYAMYWVRQAPGKERELVAAINYSGGSTYYADSVKGRFTISRDNAKNTVYLQMNSLKPEDTAVYYCAADTYPASYDYWGQGTQVTVSS”, “high polyreactivity”.
As for “QVQLVESGGGLVQAGGSLRLSCAASGFTFGPYAMGWYRQAPGKERELVAAIRGSGSSTYYADSVKGRFTISRDNAKNTVYLQMNSLKPEDTAVYYCAAKRRYGTDGYWGQGTQVTVSS”, the “polyreactivity (PSR sort gate)” value is on record as “high polyreactivity”.
Turning to “QVQLVESGGGLVQAGGSLRLSCAASGFTFGPYDMGWYRQAPGKERELVAAITDSSGSTHYADSVKGRFTISRDNAKNTVYLQMNSLKPEDTAVYYCAAVVYYTFDYWGQGTQVTVSS”, the “polyreactivity (PSR sort gate)” value was “low polyreactivity”.
Then “QVQLVESGGGLVQAGGSLRLSCAASGFTFGPYDMGWYRQAPGKERELVAVIIGGDSTNYADSVKGRFTISRDNAKYTVYLQMNSLKPEDTAVYYCAADYIDRVGWMDYWGQGTQVTVSS”, with “low polyreactivity”; and “QVQLVESGGGLVQAGGSLRLSCAASGFTFGRNAMGWYRQAPGKERELVARITTGGSTNYADSVKGRFTISRDNAKNTVYLQMNSLKPEDTAVYYCAATYRSLALFWTYGYWGQGTQVTVSS”, with “low polyreactivity”; and “QVQLVESGGGLVQAGGSLRLSCAASGFTFGRNTMGWYRQAPGKERELVAAITRRGGTTHYADSVKGRFTISRDNAKNTVYLQMNSLKPEDTAVYYCAADPFNSYYGRYDYWGQGTQVTVSS”, with “high polyreactivity”.
As for “QVQLVESGGGLVQAGGSLRLSCAASGFTFGRYAMGWYRQAPGKERELVAAISRGGSTYYADSVKGRFTISRDNAKNTVYLQMNSLKPEDTAVYYCNKGDSKEYDVYYWGQGTQVTVSS”, the “polyreactivity (PSR sort gate)” value is on record as “low polyreactivity”.
For “QVQLVESGGGLVQAGGSLRLSCAASGFTFGRYAMGWYRQAPGKERELVAAISWTGGSTYYADSVKGRFTISRDNAKNTVYLQMNSLKPEDTAVYYCAAVGRSKRDGYWGQGTQVTVSS” the value was “high polyreactivity”; for “QVQLVESGGGLVQAGGSLRLSCAASGFTFGRYGMGWYRQAPGKDREFVAAITGRTGTTYYADSVKGRFTISRDNAKNTVYLQMNSLKPEDTAVYYCAARGQYRSSRYPYYHWGQGTQVTVSS”, “high polyreactivity”.
For “QVQLVESGGGLVQAGGSLRLSCAASGFTFGRYVMGWYRQAPGKGRELVAAITSSGSRTYYADSVKGRFTISRDNAKNTVYLQMNSLKPEHTAVYYCAARVYWTPVYYWGQGTQVTVSS” the value was “high polyreactivity”; for “QVQLVESGGGLVQAGGSLRLSCAASGFTFGSNAMGWYRQAPGKEREFVAAITYSGGGTYADSVKGRFTISRDNAKNTVDLQMNSLKPEDTAVYYCATDAYRWHYWNFGFGYWGQGTQVTVSS”, “high polyreactivity”.
For “QVQLVESGGGLVQAGGSLRLSCAASGFTFGSNAMGWYRQAPGKERELVATISRRGGRTYYADSVKGRFTISRDNAKNTVYLQMNSLKPEDTAVYYCAAYLRPGGNYYWGQGTQVTVSS” the value was “high polyreactivity”; for “QVQLVESGGGLVQAGGSLRLSCAASGFTFGSNTMGWYRQAPGKERELVAAITTSGDSTYYADSVKGRFTISRDTAKNTVYLQMNSLKPEDTAVYYCAAERRYGRYYRLVRLLGQGTQVTVSS”, “high polyreactivity”.
Consider “QVQLVESGGGLVQAGGSLRLSCAASGFTFGSYAMGWYRQAPGKDRELVAAISSNGGNTYYADSVKGRFTISRDNAKNTVYLQMNSLKPEDTAVYYCARDRQSRSLLEYDFWGQGTQVTVSS”, for which the “polyreactivity (PSR sort gate)” value is given as “high polyreactivity”.
Then “QVQLVESGGGLVQAGGSLRLSCAASGFTFGSYAMGWYRQAPGKEREFVAAIRRSGSSTYYADSVKGRFTISRDNAKNTVYLQMNSLKPEDTAVYYCAADVYRRLRRYRYYYWGQGTQVTVSS”, with “low polyreactivity”.
For “QVQLVESGGGLVQAGGSLRLSCAASGFTFGSYAMGWYRQAPGKERELVAAITCSGGSTYYADSVKGRFTISRDNAKNTVYLQMNSLKPEDTAVYYCNADVAGGYGWKSYHGYDYWGQGTQVTVSS” the value was “high polyreactivity”; for “QVQLVESGGGLVQAGGSLRLSCAASGFTFGSYAMGWYRQAPGKERELVAAITYSGSRTYYADSVKGRFTISRDNAKNTVYLQMNSLKPEDTAVYYCAAVTHYGFDYWGQGTQVTVSS”, “high polyreactivity”; for “QVQLVESGGGLVQAGGSLRLSCAASGFTFGSYARGWYRQAPGKERELVAAISWGGGSTYYADSVKGRFTISRDNAKNTVYLQMNSLKPEDTAVYYCNADAISSFGYWGQGTQVTVSS”, “high polyreactivity”.
Then “QVQLVESGGGLVQAGGSLRLSCAASGFTFGSYVMGWYRQAPGKERELVADISIRGGSTYYADSVKGRFTISRDNAKNTVYLQMNSLKPEDTAVYYCNADPAFYYWEGIVGGADYDYWGQGTQVTVSS”, with “low polyreactivity”; and “QVQLVESGGGLVQAGGSLRLSCAASGFTFGTNAMGWYRQAPGKERELVATISARGARTNYADSVKGRFTISRDNAKNTVYLQMNSLKPEDTAVYYCAADPGPHRYSYDYWGQGTQVTVSS”, with “high polyreactivity”.

The record behind these values is the nanobody polyreactivity screen of Harvey et al. (2022).
